Tested on: Escherichia coli TOP10
Assay: shrunken log2 fold change of peptide-encoding DNA abundance (4.5 h post-induction vs induction); higher = less antimicrobial activity (less host growth inhibition)
Settings: time post-induction: 4.5 h; library: site-saturation at positions 5, 18, 19, 20
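Note: peptides expressed intracellularly from a pBAD plasmid library in pooled LB shake-flask culture, induced with 0.3% L-arabinose, DNA abundance read by NGS, three biological replicates, DESeq2 with apeglm shrinkage.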

Sequence	shrunken log2 fold change
RRIRGRPPRLPRPRPRPFHIPRP	-0.14
RRIRIRPPRLPRPRPRPEFQPRP	-0.129
RRIRARPPRLPRPRPRPWLMPRP	0.0299
RRIRHRPPRLPRPRPRPLEDPRP	0.0039
RRIRRRPPRLPRPRPRPLCSPRP	-0.255
RRIRCRPPRLPRPRPRPQQSPRP	-0.0144
RRIRSRPPRLPRPRPRPILNPRP	-0.183
RRIRVRPPRLPRPRPRPVMWPRP	0.365
RRIRMRPPRLPRPRPRPILTPRP	0.168
RRIRRRPPRLPRPRPRPGAPPRP	0.891
RRIRCRPPRLPRPRPRPMIAPRP	0.111
RRIRLRPPRLPRPRPRPAGCPRP	0.263
RRIRFRPPRLPRPRPRPKYMPRP	-0.836
RRIRKRPPRLPRPRPRPVHFPRP	-0.0637
RRIRKRPPRLPRPRPRPWYPPRP	0.00168
RRIRFRPPRLPRPRPRPVKEPRP	-0.0554
RRIRERPPRLPRPRPRPICVPRP	-0.301
RRIRHRPPRLPRPRPRPALQPRP	0.0339
RRIRKRPPRLPRPRPRPILVPRP	0.0199
RRIRQRPPRLPRPRPRPFAQPRP	-0.0906
RRIRCRPPRLPRPRPRPIFEPRP	0.0936
RRIRRRPPRLPRPRPRPGPYPRP	0.18
RRIRNRPPRLPRPRPRPMFDPRP	-0.253
RRIRPRPPRLPRPRPRPSKYPRP	-0.528
RRIRWRPPRLPRPRPRPIRCPRP	0.0257

Sequence	shrunken log2 fold change
RRIRKRPPRLPRPRPRPYCDPRP	0.00748
RRIRMRPPRLPRPRPRPQDHPRP	-0.0101
RRIRGRPPRLPRPRPRPDKNPRP	0.32
RRIRHRPPRLPRPRPRPNLKPRP	-0.465
RRIRYRPPRLPRPRPRPEPHPRP	-0.0423
RRIRYRPPRLPRPRPRPSYTPRP	-1.38
RRIRKRPPRLPRPRPRPCCAPRP	1.3
RRIRQRPPRLPRPRPRPTEPPRP	0.00378
RRIRARPPRLPRPRPRPAGTPRP	0.308
RRIRPRPPRLPRPRPRPVPVPRP	0.136
RRIRDRPPRLPRPRPRPCVQPRP	0.239
RRIRVRPPRLPRPRPRPVNCPRP	-0.17
RRIRMRPPRLPRPRPRPSMIPRP	0.229
RRIRARPPRLPRPRPRPCVQPRP	0.217
RRIRKRPPRLPRPRPRPSRWPRP	0.639
RRIRWRPPRLPRPRPRPMDKPRP	-0.194
RRIRHRPPRLPRPRPRPWFKPRP	0.0141
RRIRFRPPRLPRPRPRPYNMPRP	-0.725
RRIRSRPPRLPRPRPRPKTLPRP	2.07
RRIRMRPPRLPRPRPRPAVFPRP	0.383
RRIRRRPPRLPRPRPRPNFHPRP	0.75
RRIRHRPPRLPRPRPRPSMRPRP	0.204
RRIRCRPPRLPRPRPRPFPLPRP	-0.0156
RRIRIRPPRLPRPRPRPPGQPRP	-0.125
RRIRRRPPRLPRPRPRPWCNPRP	-0.543

Sequence	shrunken log2 fold change
RRIRQRPPRLPRPRPRPWYNPRP	-0.375
RRIRVRPPRLPRPRPRPWCTPRP	0.0234
RRIRLRPPRLPRPRPRPKLRPRP	-0.00715
RRIRMRPPRLPRPRPRPIWWPRP	0.124
RRIRWRPPRLPRPRPRPARFPRP	0.461
RRIRRRPPRLPRPRPRPHNWPRP	-0.131
RRIRPRPPRLPRPRPRPKSKPRP	-0.255
RRIRGRPPRLPRPRPRPDHDPRP	0.301
RRIRWRPPRLPRPRPRPRTFPRP	0.3
RRIRWRPPRLPRPRPRPKNKPRP	0.107
RRIRCRPPRLPRPRPRPCPPPRP	-0.0764
RRIRMRPPRLPRPRPRPSGTPRP	0.215
RRIRHRPPRLPRPRPRPILKPRP	-0.348
RRIRWRPPRLPRPRPRPQVFPRP	-0.0323
RRIRKRPPRLPRPRPRPTMWPRP	0.643
RRIRIRPPRLPRPRPRPLNTPRP	-0.876
RRIRERPPRLPRPRPRPKYGPRP	-0.567
RRIRSRPPRLPRPRPRPESIPRP	-0.397
RRIRNRPPRLPRPRPRPCSHPRP	-0.331
RRIRGRPPRLPRPRPRPMARPRP	0.318
RRIRIRPPRLPRPRPRPISVPRP	0.0153
RRIRYRPPRLPRPRPRPQQPPRP	0.0699
RRIRPRPPRLPRPRPRPIRYPRP	0.00275
RRIRKRPPRLPRPRPRPMWIPRP	-0.0247
RRIRMRPPRLPRPRPRPMNCPRP	-0.00776

Sequence	shrunken log2 fold change
RRIRARPPRLPRPRPRPHNQPRP	-0.00392
RRIRCRPPRLPRPRPRPIHSPRP	-0.221
RRIRDRPPRLPRPRPRPIPPPRP	0.239
RRIRYRPPRLPRPRPRPIHHPRP	-1.62
RRIRMRPPRLPRPRPRPGRCPRP	1.02
RRIRTRPPRLPRPRPRPPDNPRP	-0.0234
RRIRRRPPRLPRPRPRPKINPRP	-0.123
RRIRQRPPRLPRPRPRPEGNPRP	-0.00965
RRIRGRPPRLPRPRPRPEDMPRP	1.02
RRIRQRPPRLPRPRPRPFFCPRP	0.111
RRIRTRPPRLPRPRPRPSGFPRP	0.131
RRIRPRPPRLPRPRPRPDQRPRP	0.015
RRIRQRPPRLPRPRPRPKLQPRP	1.59
RRIRMRPPRLPRPRPRPIGWPRP	0.599
RRIRPRPPRLPRPRPRPEVDPRP	0.155
RRIRMRPPRLPRPRPRPFDMPRP	-0.192
RRIRCRPPRLPRPRPRPNENPRP	-0.0814
RRIRRRPPRLPRPRPRPKLWPRP	0.701
RRIRQRPPRLPRPRPRPEWNPRP	-0.175
RRIRDRPPRLPRPRPRPFELPRP	-0.0281
RRIRNRPPRLPRPRPRPPMLPRP	-0.0624
RRIRQRPPRLPRPRPRPVEFPRP	0.0188
RRIRSRPPRLPRPRPRPMDVPRP	-0.02
RRIRARPPRLPRPRPRPWFLPRP	-0.399
RRIRCRPPRLPRPRPRPDDPPRP	0.0647

Sequence	shrunken log2 fold change
RRIRVRPPRLPRPRPRPQSAPRP	-0.054
RRIRNRPPRLPRPRPRPNWEPRP	0.0299
RRIRNRPPRLPRPRPRPHMFPRP	-0.0579
RRIRCRPPRLPRPRPRPFRGPRP	-0.151
RRIRRRPPRLPRPRPRPCAFPRP	0.123
RRIRLRPPRLPRPRPRPFSQPRP	-0.0811
RRIRFRPPRLPRPRPRPEPFPRP	0.108
RRIRYRPPRLPRPRPRPAPEPRP	0.134
RRIRFRPPRLPRPRPRPTLMPRP	0.0425
RRIRCRPPRLPRPRPRPHSCPRP	-0.132
RRIRKRPPRLPRPRPRPKKAPRP	0.0547
RRIRFRPPRLPRPRPRPWLCPRP	-0.173
RRIRYRPPRLPRPRPRPALPPRP	-0.0414
RRIRFRPPRLPRPRPRPDNFPRP	-0.204
RRIRARPPRLPRPRPRPRKEPRP	-0.0116
RRIRPRPPRLPRPRPRPWNDPRP	0.0243
RRIRRRPPRLPRPRPRPEPVPRP	0.367
RRIRTRPPRLPRPRPRPANIPRP	-0.439
RRIRFRPPRLPRPRPRPVKCPRP	-0.0573
RRIRQRPPRLPRPRPRPGCVPRP	0.269
RRIRIRPPRLPRPRPRPSKWPRP	-0.539
RRIRDRPPRLPRPRPRPHLWPRP	0.611
RRIRDRPPRLPRPRPRPHHFPRP	-0.49
RRIRTRPPRLPRPRPRPITLPRP	-0.162
RRIRLRPPRLPRPRPRPQLAPRP	0.384

Sequence	shrunken log2 fold change
RRIRPRPPRLPRPRPRPRLQPRP	0.176
RRIRVRPPRLPRPRPRPAPDPRP	0.377
RRIRGRPPRLPRPRPRPRITPRP	0.792
RRIRLRPPRLPRPRPRPNVHPRP	-0.505
RRIRARPPRLPRPRPRPRIMPRP	0.121
RRIRTRPPRLPRPRPRPGDPPRP	0.106
RRIRWRPPRLPRPRPRPTRVPRP	0.825
RRIRRRPPRLPRPRPRPYNPPRP	-0.348
RRIRIRPPRLPRPRPRPSIGPRP	-0.333
RRIRPRPPRLPRPRPRPCWMPRP	-0.126
RRIRQRPPRLPRPRPRPYYMPRP	-0.614
RRIRKRPPRLPRPRPRPYKTPRP	-0.227
RRIRVRPPRLPRPRPRPDLWPRP	0.115
RRIRYRPPRLPRPRPRPKKNPRP	-0.231
RRIRTRPPRLPRPRPRPHAEPRP	0.17
RRIRVRPPRLPRPRPRPMHSPRP	-0.179
RRIRNRPPRLPRPRPRPQILPRP	-0.265
RRIRCRPPRLPRPRPRPDTRPRP	-0.0118
RRIRWRPPRLPRPRPRPEAYPRP	0.212
RRIRARPPRLPRPRPRPRYGPRP	-0.0744
RRIRHRPPRLPRPRPRPQLEPRP	0.0607
RRIRFRPPRLPRPRPRPKFGPRP	0.039
RRIRNRPPRLPRPRPRPTFDPRP	0.0109
RRIRRRPPRLPRPRPRPQVRPRP	-0.0161
RRIRWRPPRLPRPRPRPDWMPRP	0.212

Reference: the supplement of paper PMC9112550, “Optimization of the antimicrobial peptide Bac7 by deep mutational scanning” (BMC Biology, 2022)
